Here are results for 3 molecules from patent US11795454B2, “Targeted delivery system” (Cedars-Sinai Medical Center, priority 2009, dated 2023).

The subject of one series is HER2 siRNA. Description: siRNA gel mobility shift assay. The format is binding. As to conditions: 50 pmol siRNA, increasing protein. An excerpt: The gel was stained with ethidium bromide to visualize siRNA and siRNA-protein complexes.
One goal was to assemble a noncovalent siRNA conjugate. […] The duplex, which was obtained from Invitrogen (Carlsbad, CA, USA), has been established elsewhere to specifically eliminate HER2 transcripts and thus induce apoptosis (Choudhury et al., 2004; Faltus et al., 2004).

Series [1] deals with MDA-MB-435 (HER2+) cells. As to the kind of experiment: HerDox targeted toxicity in vitro, separate cultures. The format is cell-based, human. As to conditions: 10× molar excess. As to the method: All treatments, N=3. FIG. 27A. Comparing cytotoxicity to HER2+ (MDAMB-435) and HER2− (MDA-MB-231) cells in separate cultures. Left, Relative survival (as % of untreated cells) on day 3 of treatment. Right, Micrograph of live cells after treatment. Control, mock (HBS) treatment. FIG. 27B, Receptor specificity of cytotoxicity. […] FIG. 27C, Toxicity to cells displaying differential HER2. Cytotoxicities from HerDox titrations were assessed on each cell line by metabolic assay and confirmed by crystal violet stain on day 3 of treatment. CD50 values (shown in log scale) were determined by non-linear regression analyses of HerDox killing curves using GraphPad Prism. The relative HER2 level of each cell line is shown next to each CD50 value. FIG. 27D, Targeting in a mixed MDA-MB-435(HER2+,GFP−)/MDA-MB-231(HER2−,GFP+) cell culture. Survival was determined by calculating the relative doubling time (DT) of experimental (exp) cells normalized by mock-treated (con) cells based on crystal violet stains (total cells) and GFP fluorescence (MDAMB-231 cells), and applying DTMDA-MB-435=DTTotal-DTMDA-MB-231 as previously described. Relative survival is shown for Day 2 of treatment. FIG. 27E, Targeted glioma cell death in vitro. U251 cells were treated once with the indicated HerDox (and competitive inhibitor where indicated) or Dox doses and measured for cell survival at the indicated time points after treatment. * P<0.05 compared to Mock.
For all in vitro treatments, cell lines were grown for ˜36 h after plating (104/well in 96-well dishes) to allow receptor re-expression, followed by media replacement with new media containing indicated constructs in reduced volume at the indicated final molarities for 4 h with rocking, followed by supplementation with additional media and continued growth for the indicated time periods. Except for the experiments performed on the U251 glioma cells (which received a one-time treatment), cells received these treatments daily while separate sets of wells were assessed for cell death by either metabolic assay (CellTiter Promega Corporation, Madison, WI, USA) or crystal violet stain each day. Where indicated, cells received competitive inhibitor (eHRG) at 10× molar excess for 30 min-1 h at 4° C. before treatment. Treatment of mixed (HER2+/HER2−) cell cultures with HerDox or Dox (0.5 uM), and cell surface receptor subunit level determination were performed as previously described.

Series [2] can be described thus: Ultrafiltration of HerPBK10-siRNA conjugates (100K mwco, high speed centrifugation). The format is physicochemical. From the text:
FIGS. 6A-6B depict, in accordance with an embodiment described herein, HerPBK10-siRNA form stable conjugates that can be isolated by ultrafiltration. Conjugates were made in 0.1M Hepes/OptimemI buffer for 20′-RT, as described above. […] Filtrates and retentates were collected and loaded onto either a 2% agarose (FIGS. 6A and 6B, left panel) or 5% PAGE/native gel (FIG. 6B, right panel). Gels were stained for Et-Br to visualize siRNA and siRNA-protein complexes.

Series [3] can be described thus: siRNA stability in serum, agarose gel electrophoresis. Format: in vitro ADME, bovine. The note with it: 100% serum, 1 h at 37° C.
A further series deals with MDA-MB-231 (HER2−) cells. As to the kind of experiment: Cell survival (crystal violet) after targeted or lipo-mediated siRNA delivery. Format: cell-based, human. As for the experimental part: (§1) Complexes were prepared as described in FIG. 2. Un, untreated. In FIG. 12A, *, P<0.02 (HER2+ vs HER2− cells). In FIG. 12B, *, P<0.05 (compared to untreated). Significant differences determined by 2-tailed t tests.

Series [4] deals with MDA-MB-435 (HER2+) cells. Described as above. Format: cell-based, human. As for the experimental part:
as §1

In series [5] the test system is HER2+ human breast cancer cells. Description: Survival of HER2+ cells in culture after targeted conjugate (summary). As to conditions: depending on the cell line. Format: cell-based. From the text:
The inventors designed HerPBK10 to penetrate HER2+ cells by combining the ‘Her’ domain for binding heregulin receptors, which have an increased ligand affinity on HER2+ tumor cells, and the membrane lysis and intracellular trafficking features of the ‘PB’ domain, which is derived from the cell-entry functions of the Ad capsid. Binding and transport of nucleic acids can be mediated by the polylysine, ‘K10’ domain. […] Using in vivo fluorescence imaging, it was observed that the targeting ligand used here specifically accumulates at HER2+ tumor tissue in mice while evading accumulation in other tissues. It was also observed that HerPBK10 could mediate the uptake of a Cy3-labeled oligonucleotide in HER2+ cells. […] Associated with this reduction was substantial target cell death.

The test system of series [6] is IFN-alpha. As to the kind of experiment: IFN-alpha secretion by sandwich ELISA, MDA-MB-435 cells. The note with it: complex at 10 and 50 nM siRNA dose, HerPBK10 equivalent to 50 nM dose, 24 h. The format is cell-based, human. As to the method: (§2) FIGS. 13A-13B depict, in accordance with an embodiment herein, cytokine induction. […] At 24 h after treatment, media was collected from above the cells and assayed for (FIG. 13A) IFN-alpha, or (FIG. 13B) IFN-beta titer by sandwich ELISA following manufacturer's protocol (PBL Biomedical Laboratories). *, P<0.01 (compared to untreated); **, P=0.01 (HER2+ vs HER2− cells); †, P<0.05 (compared to untreated). Statistical significances determined by 2-tailed t tests.
(§3) To examine whether cytokines contribute to the targeted toxicity observed earlier, the media of HerPBK10-siRNA (T7-transcribed)-treated HER2+ MDA-MB-435 and HER2− MDA-MB-231 cells were collected and assayed by ELISA for interferons alpha and beta. […] Given the overall low level of cytokine detected in the medium by all treatments, these differences are likely to have little relevance.
(In an ELISA, binding on a coated surface is turned into a signal by an enzyme label.)

In series [7] the test system is IFN-alpha. As to the kind of experiment: IFN-alpha secretion by sandwich ELISA, MDA-MB-231 cells. Format: cell-based, human. The note with it: 24 h. As to the method:
as §2, §3

The subject of another series is HER2+ MDA-MB-435 tumors. Description: Tumor growth after intratumoral injection. Format: in vivo, mouse. The note with it: two IT injections a week apart, 1.5 nmoles siRNA. As for the experimental part: FIGS. 15A-15B depict, in accordance with an embodiment herein, effect on tumor growth. Female (6-8 week) nude mice were inoculated with human HER2+ MDA-MB-435 cancer cells by subcutaneous flank injections of 1×10^7 cells per injection. At 4-6 weeks after implant, weekly measurements were taken to quantify tumor volume and track growth. […] Complex was prepared as described in FIG. 14. FIG. 15A, representative mice at week 4 with tumors indicated by arrows.
Before testing for targeted toxicity of HerPBK10-siRNA, the inventors assessed cytotoxic potential in vivo after intratumoral (IT) injection of complexes in tumor-bearing mice. […] Blood was also collected after each injection to assess cytokine levels. […] Even though the complex was not delivered intravenously but rather by IT injection, there still appears to be an advantage to the targeted complex with regard to tumor toxicity.

The test system of series [8] is IFN-alpha. Description: In vivo cytokine induction, blood IFN-alpha ELISA after IT injection. On the set-up: species or system mouse. The note with it: 24 h after each IT injection, compared to saline control. As for the experimental part: FIG. 16 depicts, in accordance with an embodiment herein, in vivo cytokine induction. Blood was collected from the mice treated in FIG. 15B at 24 h after each IT injection and relative IFN-alpha levels quantified by sandwich ELISA following manufacturer's protocol (PBL Biomedical Laboratories). Control, tumors receiving saline injections. *, P=0.05 compared to control (as determined by 2-tailed unpaired T test).
To examine whether cytokines contribute to the tumor reduction observed and described herein, blood was collected from the same mice at 24 h after each IT injection and assayed for interferon (TFN)-alpha. […] It is possible that its indirect contribution results from enhanced tumor delivery, penetration, retention. Together with the tumor-shrinkage observed from these injections, these findings provide additional evidence that the targeted carrier, HerPBK10, can deliver both siRNA-mediated silencing and cytokine-mediated cytotoxicity to induce two-pronged targeted destruction to tumor cells.

Series [9] concerns HER2+ (MDA-MB-435) tumors. As to the kind of experiment: In vivo tumor targeting of Cy5-labeled siRNA, fluorescence imaging. The note with it: tail vein injection. More on the design: species or system mouse. An excerpt: FIGS. 23A-23C depict in accordance with an embodiment herein, monitoring in vivo tumor targeting. […] The mice were immediately monitored by in vivo fluorescence intensity imaging through our collaborators' imaging facility (Farkas lab, Cedars-Sinai Medical Center). 23C, Analysis of the fluorescence intensity contrast between tumor and non-tumor areas of 23A and 23B (graphs).

Regarding “PB: penton base segment of adenovirus serotype 5 [reference compound]”, the siRNA electromobility result with HER2 siRNA was “did not”.

B1: eHRG: competitive inhibitor, competing ligand of the heregulin receptor (protein, UniProt Q02297 20-242, looked up)
extracellular domain: SGKKPESAAGSQSPALPPRLKEMKSQESAAGSKLVLRCETSSEYSSLRFKWFKNGNELNRKNKPQNIKIQKKPGKSELRINKASLADSGEYMCKVISKLGNDSASANITIVESNEIITGMPASTEGAYVSSESPIRISVSTEGANTSSSTSTSTTGTSHLVKCAEKEKTFCVNGGECFMVKDLSNPSRYLCKCQPGFTGARCTENVPMKVQNQEKAEELYQKR
modifications: extracellular domain
For B1, the “effect of competitive inhibitor on cell killing by HerDox” value with MDA-MB-435 (HER2+) cells [1] is given as “prevented HER2+ cell killing”.

B2: HerPBK10-siRNA: noncovalent conjugate of HerPBK10 with anti-HER2 siRNA bound via electrophilic interaction (conjugate)
chain: LPPRLKEMKSQESAAGSKLVLRCETSSEYSSLRFKWFKNGNELNRKNKPQNIKIQKKPGKSELRINKASLADSGEYMCKVISKLGNDSASANITIVESNEIITGMPASTEGAYVSSESPIRISVSTEGANTSSSTSTSTTGTSHLVKCAEKEKTFCVNGGECFMVKDLSNPSRYLCKCQPGFTGARCTENVPMKVQNQEKAEELYMRRAAMYEEGPPPSYESVVSAAPVAAALGSPFDAPLDPPFVPPRYLRPTGGRNSIRYSELAPLFDTTRVYLVDNKSTDVASLNYQNDHSNFLTTVIQNNDYSPGEASTQTINLDDRSHWGGDLKTILHTNMPNVNEFMFTNKFKARVMVSRLPTKDNQVELKYEWVEFTLPEGNYSETMTIDLMNNAIVEHYLKVGRQNGVLESDIGVKFDTRNFRLGFDPVTGLVMPGVYTNEAFHPDIILLPGCGVDFTHSRLSNLLGIRKRQPFQEGFRITYDDLEGGNIPALLDVDAYQASLKDDTEQGGGGAGGSNSSGSGAEENSNAAAAAMQPVEDMNDHAIRGDTFATRAEEKRAEAEAAAEAAAPAAQPEVEKPQKKPVIKPLTEDSKKRSYNLISNDSTFTQYRSWYLAYNYGDPQTGIRSWTLLCTPDVTCGSEQVYWSLPDMMQDPVTFRSTRQISNFPVVGAELLPVHSKSFYNDQAVYSQLIRQFTSLTHVFNRFPENQILARPPAPTITTVSENVPALTDHGTLPLRNSIGGVQRVTITDARRRTCPYVYKALGIVSPRVLSSRTFKKKKKKKKKK
On to B2, for which the “Free siRNA in 100K filtrates” value in series [2] is on record as “low to no detection of free siRNA”. In addition, the “State of the siRNA (ethidium bromide staining)” value in [3] is recorded as “intact”. For the same molecule, the cell survival result in the series with MDA-MB-231 (HER2−) cells is “little to no effect”; in the series on MDA-MB-435 (HER2+) cells [4], “dose-dependent reduction in survival”. Moreover, the “reduction in HER2+ cell survival” value in series [5] is “up to 85%”. Moreover, the IFN-alpha secretion entry in the series with IFN-alpha [6] is listed as “substantially elevated”; in the series on IFN-alpha [7], “little affected”. In addition, the tumor growth result in the series on HER2+ MDA-MB-435 tumors was “average reduction in tumor growth”. For the same molecule, the “circulating IFN-alpha” value in the series with IFN-alpha [8] is given as “elevated circulating IFN-alpha”. In addition, in [9], the tumor retention entry was “tumor retention”. Moreover, in [9] (all time points, compared to free siRNA), the “fluorescence intensity contrast between tumors and non-tumor areas” value was “preferential tumor accumulation”.
